# Patent US20210292393A1
# Where “and” joins values, the source holds several entries; their conditions need not be identical. Equal entries are not always repeated.
# B1: antibody 464 (antibody, V domains shown)
# VH: QVQLVQSGAEVKKPGASVKVSCKVSGYTLTELSMHWVRQAPGKGLEWMGGFDPEDGETIYAQKFQGRVTMTEDTSTDTAYMELSSLRSEDTAVYYCATARAFGVANWFDPWGQGTLVTVSS
# VL: QSVLTQPPSASGTPGQRVTISCSGSSSNIGSNYVYWYQQLPGTAPKLLIYRNNQRPSGVPDRFSGSKSGTSASLAISGLRSEDEADYYCAAWDDSLSGLYVFGTGTKVTVL
# B2: antibody 472 (antibody, V domains shown)
# VH: EVQLVESGGGLIQPGGSLRLSCAASGFTVSSNYMSWVRQAPGKGLEWVSVIYSGGTTHYADSVKGRFTISRDNSKNTLYLQMNSLRAEDTAVYYCANYGMDVWGQGTTVTVSS
# VL: SYELTQPSSVSVSPGQTARITCSGDVLAKKYARWFQQKPGQAPVLVIYKDSERPSGIPERFSGSSSGTTVTLTISGAQVEDEADYYCYSAADKVFGGGTKLTVL
# B3: antibody 490 (antibody, V domains shown)
# VH: QVQLQESGPGLVKPSGTLSLTCAVSGGSISSSNWWSWVRQPPGKGLEWIGELYHSGSTNYNPSLKSRVTISVDKSKNQFSLKLSSVTAADTAVYYCARVGPYYYDSSGYYNYFDYWGPGTLVTVSS
# VL: EIVLTQSPATLSLSPGERATLSCRASQSVSSYLAWYQQKPGQAPRLLIYDASNRATGIPARFSGSGSGTDFTLTISSLEPEDFAVYYCQQRSNWPPGITFGQGTRLEIK
# B4: antibody 493 (antibody, V domains shown)
# VH: EVQLVESGGGLIQPGRSLRLSCAASGFTVSITYMSWVRQAPGKGLEWVSLIYSGGSSYYADSVKGRFTISRDNSKNTLYLQMNSLRAEDTAVYYCATTMVRGVIISYYYGMDVWGQGTTVTVSS
# VL: QSALTQPASVSGSPGQSITISCTGTSSDVGGYNYVSWYQQHPGKAPKLMIYEVSNRPSGVSNRFSGSKSGNTASLTISGLQAEDEADYYCSSYTSSSTLVFGGGTKLTVL
# B5: antibody 495 (antibody, V domains shown)
# VH: QITLKESGPTLVKPTQTLTLTCTFSGFSLSTSGVGVGWIRQPPGKALEWLALIYWDDDKRYSPSLKSRLTITKDTSKNQVVLIMTNMDPVDTATYYCAHRDSSSWFDLDAFDIWGQGTMVIVSS
# VL: QSVLTQPPSVSEAPRQRVTISCSGSSSNIGNNAVNWYQQLPGKAPKLLIYYDDLLPSGVSDRFSGSKSGTSASLAISGLQSEDEADYYCAAWDDRLNGPVFGGGTKLTVL
# B6: antibody 499 (antibody, V domains shown)
# VH: EVQLVESGGGLVKPGGSLRLSCAASGFTFSSYSMNWVRQAPGKGLEWVSSISSSSSYIYYADSVKGRFTISRDNAKNSLYLQMNSLRAEDTAVYYCARAPAGIVVGPDYWGQGTLVTVSS
# VL: NFMLTQPHSVSESPGKTVTISCTGSSGSIASNYVQWYQQRPGSAPTTVIFEDNQRPSGVPDRFSGSIDSSSNSASLTISGLKTEDEADYYCQSYHSSNPHVVFGGGTKLTVL
# Legend:
# Details in all cases: remark: other sources report otherwise
# [1] = target: SARS-CoV-2 full length spike protein, D614G mutant, expressed on CHO cells (SARS-CoV-2), P0DTC2
# [2] = target: SARS-CoV-2 full length spike protein, V367F mutant, expressed on CHO cells (SARS-CoV-2), P0DTC2
# [3] = target: SARS-CoV-2 full length spike protein, V483A mutant, expressed on CHO cells (SARS-CoV-2), P0DTC2
binder,measurement,setting,value
B1,"median fluorescence intensity, fold over isotype control (fold over isotype)",[1],0.86
same,"median fluorescence intensity, fold over isotype control (fold over isotype)",[2],1.04
same,"median fluorescence intensity, fold over isotype control (fold over isotype)",[3],1.04 and 1
B2,"median fluorescence intensity, fold over isotype control (fold over isotype)",[1],1.22
same,"median fluorescence intensity, fold over isotype control (fold over isotype)",[2],3.19
same,"median fluorescence intensity, fold over isotype control (fold over isotype)",[3],2.35 and 2.49
B3,"median fluorescence intensity, fold over isotype control (fold over isotype)",[1],1.03
same,"median fluorescence intensity, fold over isotype control (fold over isotype)",[2],1.14
same,"median fluorescence intensity, fold over isotype control (fold over isotype)",[3],1.15 and 1.13 and 1.52
B4,"median fluorescence intensity, fold over isotype control (fold over isotype)",[1],1.72
same,"median fluorescence intensity, fold over isotype control (fold over isotype)",[2],4.82
same,"median fluorescence intensity, fold over isotype control (fold over isotype)",[3],4.63 and 2.26
B5,"median fluorescence intensity, fold over isotype control (fold over isotype)",[1],1.43
same,"median fluorescence intensity, fold over isotype control (fold over isotype)",[2],3.82
same,"median fluorescence intensity, fold over isotype control (fold over isotype)",[3],3.47 and 1.65
B6,"median fluorescence intensity, fold over isotype control (fold over isotype)",[1],4.3
same,"median fluorescence intensity, fold over isotype control (fold over isotype)",[2],1.18
same,"median fluorescence intensity, fold over isotype control (fold over isotype)",[3],4.39 and 2.6
